One assay deals with T1, TRX-APRIL (mouse, UniProt Q9D777 104-241).
T1 construct: Named only as TRX-APRIL
T1 sequence (looked up): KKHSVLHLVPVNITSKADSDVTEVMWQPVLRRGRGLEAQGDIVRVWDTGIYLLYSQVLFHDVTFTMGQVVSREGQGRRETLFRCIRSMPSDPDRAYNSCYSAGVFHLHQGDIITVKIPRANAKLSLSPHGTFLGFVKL
The assay can be described thus: SPR competition: ligand in solution against immobilized BCMA-Fc.

Assay [1] addresses T2, human BAFF (human, UniProt Q9Y275 82-285, limits assumed). The assay is described as above.
Method: (§2) Surface plasmon resonance (SPR) measurements on a BIAcore 3000 instrument (Pharmacia Biosensor) were used to measure binding affinities of receptors to immobilized APRIL and BAFF by competition binding. […] In all experiments flow cell 1 was ethanolamine-blocked and used as the reference cell. Washing with 10 mM HCl regenerated flow cells between sample injections. […] The concentration of ligand that provided a slope of about 1 for the initial on-rate of the observed sensorgrams was selected as the fixed concentration to be used in the competition experiments. In all experiments where BAFE was the ligand, the buffer used was composed of 10 mM HEPES, pH 7.2, 150 mM NaCl, and 0.005% Tween-20. In all experiments where TRX-APRIL was the ligand selected, the buffer was composed of 20 mM Tris-HCl, pH 8.0, 200 mM NaCl, and 0.005% Tween-20. […] A linear fit of the initial on-rate of the observed sensorgrams was used to calculate the binding rate (V). The IC₅₀ values were calculated using a four-parameter curve fit (y=((m1−m4)/(1+(m0/m3)̂m2))+m4) of the initial binding rates for the receptor/control (Vᵢ/Vₒ) as a function of receptor concentration.
Assay [2] concerns the target T3, Murine APRIL (mouse, UniProt Q9D777 105-241, limits assumed).
T3 sequence (looked up): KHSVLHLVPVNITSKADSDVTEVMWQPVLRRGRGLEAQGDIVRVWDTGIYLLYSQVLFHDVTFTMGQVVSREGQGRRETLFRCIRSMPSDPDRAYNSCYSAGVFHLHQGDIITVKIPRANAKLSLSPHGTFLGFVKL
As to the kind of experiment: NNS library, phage display.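 Further: ligand versus display occurrence-to-degeneracy ratio and higher means enriched by binding.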

Assay [3] deals with T2, human BAFF. As to the kind of experiment: NNS library, phage display.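 Further: ligand versus display occurrence-to-degeneracy ratio and higher means enriched by binding.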
Assay [4] addresses T3, Murine APRIL. The assay can be described thus: shotgun scan, phage display. The source says: (§1) Phage from each of the libraries described above were subjected to rounds of binding selection against APRIL, BAFF, or anti-tag antibody (3C8:2F4 Genentech, Inc.) immobilized on 96-well Nunc Maxisorp immunoplates (Sidhu, 2001). BSA-coated wells were used to determine non-specific background binding. Phage eluted from each target were propagated in E. coli XL1-Blue in the presence of M13K07 helper phage; amplified phage were used for selection against the same target in the […] round. […] Enrichment was calculated from the ratio of the phage titer eluted from the target-coated wells to the phage titer eluted from the BSA-coated wells. Individual clones from each library and selection target were then grown in a 96-well format in 400 ul of 2YT medium supplemented with carbenicillin and KO7 helper phage. […] Sequences of acceptable quality were translated and aligned. For APRIL-binding, 71, 40, and 54 sequences were analyzed from libraries one, two and three, respectively. For BAFF-binding, 70, 50, and 53 sequences were analyzed for libraries one, two and three, respectively. For the display selection, a minimum of 47 sequences were analyzed for each library. […] F values describe the effect of mutation on target binding, while accounting for differences in display efficiencies, with values >1 representing deleterious mutations and those <1 representing favorable mutations.

Assay [5] concerns the target T2, human BAFF. The assay can be described thus: shotgun scan, phage display.
Source text: as §1

T2 sequence (Q9Y275 82-285 limits assumed): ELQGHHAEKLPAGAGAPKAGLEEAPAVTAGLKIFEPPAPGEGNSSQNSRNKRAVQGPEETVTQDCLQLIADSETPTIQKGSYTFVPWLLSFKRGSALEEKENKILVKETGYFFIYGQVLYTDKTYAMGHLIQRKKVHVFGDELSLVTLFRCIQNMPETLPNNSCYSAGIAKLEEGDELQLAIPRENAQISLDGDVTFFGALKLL
Method for TRX-APRIL: as §2

B1: TACI_d2 (second cysteine-rich domain, CRD2, residues 68-109 of human TACI) (receptor)
chain: GSPWSLSCRKEQGKFYDHLLRDCISCASICGQHPKQCAYFCENKLR
notes: E. coli, cleaved from TRX-His fusion; residue numbers are those of native human TACI (293 aa); also called TACI CRD2
Regarding B1, the figures for the IC50 with TRX-APRIL and with human BAFF [1] were 6 nM and 2 nM, respectively.

B2: TACI_d2 F78A (receptor)
chain: SLSCRKEQGKAYDHLLRDCISCASICGQHPKQCAYFCENKLR
notes: phage library variant, format as m9
On to B2, for which the “F' APRIL” value with Murine APRIL [2] came to 0. Besides, the “F' BAFF” value with human BAFF [3] amounted to 0. The “F (APRIL)” value with Murine APRIL [4] was determined as 29. The “F (BAFF)” value with human BAFF [5] came out at 1.1.

B3: TACI_d2 Q75A (receptor)
chain: SLSCRKEAGKFYDHLLRDCISCASICGQHPKQCAYFCENKLR
notes: as for B2
As to B3, in the assay with Murine APRIL [4], the “F (APRIL)” value stood at 1.4. Also, the “F (BAFF)” value with human BAFF [5] worked out at 0.9.

B4: TACI_d2 L83V (receptor)
chain: SLSCRKEQGKFYDHLVRDCISCASICGQHPKQCAYFCENKLR
notes: as for B2
In the case of B4, the “F (APRIL)” value with Murine APRIL [4] worked out at 4.8. The “F (BAFF)” value with human BAFF [5] is 1.6.

B5: TACI_d2 L108A (receptor)
chain: SLSCRKEQGKFYDHLLRDCISCASICGQHPKQCAYFCENKAR
notes: as for B2
As to B5, the “F (APRIL)” value with Murine APRIL [4] was 1. Also, in the assay with human BAFF [5], the “F (BAFF)” value was 1.2.

B6: TACI_d2 I92T (receptor)
chain: SLSCRKEQGKFYDHLLRDCISCASTCGQHPKQCAYFCENKLR
notes: as for B2
Regarding B6, the “F' APRIL” value with Murine APRIL [2] amounted to 3. Further, in the assay with human BAFF [3], the “F' BAFF” value was determined as 7. The “F (APRIL)” value in the assay with Murine APRIL [4] was 6. Further, the “F (BAFF)” value with human BAFF [5] stood at 0.9.

B7: TACI_d2 N106T (receptor)
chain: SLSCRKEQGKFYDHLLRDCISCASICGQHPKQCAYFCETKLR
notes: as for B2
Turning to B7, the “F (APRIL)” value with Murine APRIL [4] worked out at 1.6. The “F (BAFF)” value with human BAFF [5] was 1.2.

B8: TACI_d2 R72G (receptor)
chain: SLSCGKEQGKFYDHLLRDCISCASICGQHPKQCAYFCENKLR
notes: as for B2
Turning to B8, the “F (APRIL)” value in the assay with Murine APRIL [4] is 0.6. For the same molecule, the “F (BAFF)” value in the assay with human BAFF [5] came out at 0.4.

B9: TACI_d2 I92V (receptor)
chain: SLSCRKEQGKFYDHLLRDCISCASVCGQHPKQCAYFCENKLR
notes: as for B2
With B9, the “F' APRIL” value in the assay with Murine APRIL [2] is 6. Moreover, the “F' BAFF” value in the assay with human BAFF [3] was determined as 9. Besides, the “F (APRIL)” value with Murine APRIL [4] worked out at 3.3. In addition, the “F (BAFF)” value with human BAFF [5] worked out at 0.5.

B10: TACI_d2 N106A (receptor)
chain: SLSCRKEQGKFYDHLLRDCISCASICGQHPKQCAYFCEAKLR
notes: as for B2
As to B10, the “F (APRIL)” value with Murine APRIL [4] was determined as 1.2. In the assay with human BAFF [5], the “F (BAFF)” value was determined as 0.9.

B11: TACI_d2 Y102A (receptor)
chain: SLSCRKEQGKFYDHLLRDCISCASICGQHPKQCAAFCENKLR
notes: as for B2
For B11, in the assay with Murine APRIL [4], the “F (APRIL)” value turned out to be 1.6. The “F (BAFF)” value with human BAFF [5] was determined as 2.

B12: TACI_d2 L82P (receptor)
chain: SLSCRKEQGKFYDHPLRDCISCASICGQHPKQCAYFCENKLR
notes: as for B2
Consider B12, for which, in the assay with Murine APRIL [4], the “F (APRIL)” value was more than 49. Besides, the “F (BAFF)” value with human BAFF [5] is more than 61.

B13: TACI_d2 Q75E (receptor)
chain: SLSCRKEEGKFYDHLLRDCISCASICGQHPKQCAYFCENKLR
notes: as for B2
On to B13, for which the “F (APRIL)” value with Murine APRIL [4] is 0.7. For the same molecule, in the assay with human BAFF [5], the “F (BAFF)” value came to 0.7.

B14: TACI_d2 Y102D (receptor)
chain: SLSCRKEQGKFYDHLLRDCISCASICGQHPKQCADFCENKLR
notes: as for B2
Regarding B14, the “F (APRIL)” value with Murine APRIL [4] is 0.8. Moreover, the “F (BAFF)” value with human BAFF [5] turned out to be 0.6.

B15: TACI_d2 R72P (receptor)
chain: SLSCPKEQGKFYDHLLRDCISCASICGQHPKQCAYFCENKLR
notes: as for B2
As to B15, the “F (APRIL)” value in the assay with Murine APRIL [4] turned out to be 0.7. Also, the “F (BAFF)” value with human BAFF [5] stood at 0.6.

B16: TACI_d2 L82V (receptor)
chain: SLSCRKEQGKFYDHVLRDCISCASICGQHPKQCAYFCENKLR
notes: as for B2
For the molecule B16, the “F (APRIL)” value with Murine APRIL [4] was more than 20. For the same molecule, the “F (BAFF)” value with human BAFF [5] is more than 25.

B17: TACI_d2 Q75P (receptor)
chain: SLSCRKEPGKFYDHLLRDCISCASICGQHPKQCAYFCENKLR
notes: as for B2
As to B17, the “F (APRIL)” value with Murine APRIL [4] stood at 1.1. Moreover, the “F (BAFF)” value in the assay with human BAFF [5] came out at 0.8.

B18: TACI_d2 R109P (receptor)
chain: SLSCRKEQGKFYDHLLRDCISCASICGQHPKQCAYFCENKLP
notes: as for B2
As for B18, the “F (APRIL)” value in the assay with Murine APRIL [4] was 1.2. The “F (BAFF)” value with human BAFF [5] turned out to be 1.2.

B19: TACI_d2 L108V (receptor)
chain: SLSCRKEQGKFYDHLLRDCISCASICGQHPKQCAYFCENKVR
notes: as for B2
For the molecule B19, the “F (APRIL)” value with Murine APRIL [4] came out at 0.9. In addition, in the assay with human BAFF [5], the “F (BAFF)” value is 1.2.

B20: TACI_d2 Q99P (receptor)
chain: SLSCRKEQGKFYDHLLRDCISCASICGQHPKPCAYFCENKLR
notes: as for B2
B20: the “F (APRIL)” value with Murine APRIL [4] is 1.5. In the assay with human BAFF [5], the “F (BAFF)” value worked out at 1.8.

B21: TACI_d2 L82A (receptor)
chain: SLSCRKEQGKFYDHALRDCISCASICGQHPKQCAYFCENKLR
notes: as for B2
Turning to B21, the “F (APRIL)” value with Murine APRIL [4] was more than 29. In addition, the “F (BAFF)” value with human BAFF [5] is more than 36.

B22: TACI_d2 R109G (receptor)
chain: SLSCRKEQGKFYDHLLRDCISCASICGQHPKQCAYFCENKLG
notes: as for B2
Take B22: in the assay with Murine APRIL [4], the “F (APRIL)” value was 1.2. The “F (BAFF)” value with human BAFF [5] is 1.2.

B23: TACI_d2 R72A (receptor)
chain: SLSCAKEQGKFYDHLLRDCISCASICGQHPKQCAYFCENKLR
notes: as for B2
For the molecule B23, the “F (APRIL)” value with Murine APRIL [4] is 1.1. The “F (BAFF)” value with human BAFF [5] came to 0.4.

B24: TACI_d2 Q99E (receptor)
chain: SLSCRKEQGKFYDHLLRDCISCASICGQHPKECAYFCENKLR
notes: as for B2
With B24, the “F (APRIL)” value in the assay with Murine APRIL [4] stood at 1.6. For the same molecule, the “F (BAFF)” value with human BAFF [5] is 0.8.

B25: TACI_d2 R109A (receptor)
chain: SLSCRKEQGKFYDHLLRDCISCASICGQHPKQCAYFCENKLA
notes: as for B2
On to B25, for which, in the assay with Murine APRIL [4], the “F (APRIL)” value was 1.5. In addition, the “F (BAFF)” value in the assay with human BAFF [5] amounted to 0.9.

B26: TACI_d2 F78V (receptor)
chain: SLSCRKEQGKVYDHLLRDCISCASICGQHPKQCAYFCENKLR
notes: as for B2
As to B26, in the assay with Murine APRIL [2], the “F' APRIL” value turned out to be 1. Besides, the “F' BAFF” value in the assay with human BAFF [3] turned out to be 1. In addition, the “F (APRIL)” value in the assay with Murine APRIL [4] stood at 5.2. Besides, the “F (BAFF)” value with human BAFF [5] was 0.8.

By IC50 is commonly meant the midpoint of a concentration-inhibition curve.

Source of the values: patent US20080181886A1 (Genentech, published 2008).
